Key:
[1] = biological target: human Factor IX EGF domain mutant EGF.AA (UniProt P00740)
[2] = biological target: human Factor IX EGF domain (wild type) (UniProt P00740)
[3] = biological target: human Factor IX EGF domain mutant EGF.GA (UniProt P00740)
[4] = biological target: human Factor IX EGF domain mutant EGF.AG (UniProt P00740)
Chain of human Factor IX EGF domain mutant EGF.AG (P00740 other isoform, or with tags, fused parts or gaps mutant): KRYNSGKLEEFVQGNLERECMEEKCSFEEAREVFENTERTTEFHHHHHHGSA

Chain of human Factor IX EGF domain mutant EGF.AA (P00740 other isoform, or with tags, fused parts or gaps mutant): as above
Chain of human Factor IX EGF domain (wild type) (P00740 other isoform, or with tags, fused parts or gaps): as the sequence (P00740 other isoform, or with tags, fused parts or gaps mutant) above
Chain of human Factor IX EGF domain mutant EGF.GA (P00740 other isoform, or with tags, fused parts or gaps mutant): as above

O-fucosyltransferase purified from CHO cells
Fucose (cpm) [1]: 1820 cpm | RP-HPLC with electrospray mass spectrometry of the fucosylation product [1]: only one of the four differently folded species served as an acceptor substrate for the O-fucosyltransferase | Fucose (cpm) [2]: 12100 cpm | Fucose (cpm) [3]: 6480 cpm | Fucose (cpm) [4]: 4580 cpm
